These results are taken from patent publication US20240024520A1 (UCB, published 2024).

Experiment [1] addresses T1, human complement component C5 (human, UniProt P01031 19-673; P01031 678-1676).
T1 construct: mature; Mature C5 is a disulphide-linked beta and alpha chain cut from one precursor; Terbium-labelled in the FRET assays, biotinylated in part of the phage ELISA; also called human C5; C5-Tb
Kind of experiment: SPR (Biacore), C5, mean of n=3.

Experiment [2] deals with T1, human complement component C5.
For experiment [3] the target is unchanged. The source holds these as a separate data set.
The target is the same in experiment [4]. The source holds these as a separate data set.
For experiment [5] the target is unchanged. Kind of experiment: SPR multi-cycle kinetics, human C5 immobilised, mean of n=3.
Experiment [6] has the same target. As to the kind of experiment: cell-based or functional assay.
The target is the same in experiment [7]. As to the kind of experiment: SPR single-cycle kinetics, human C5, n=1.
For experiment [8] the target is unchanged. Kind of experiment: cell-based or functional assay. This is another data set of the same source.
The target of a further experiment is rat serum albumin (rat, UniProt P02770 25-608). Kind of experiment: monoclonal phage ELISA. On the technique in general: In an ELISA, binding on a coated surface is turned into a signal by an enzyme label.
In the next experiment the target is T2, mouse serum albumin (mouse, UniProt P07724 25-608).
T2 construct: also called MSA
As to the kind of experiment: monoclonal phage ELISA.

What is called Kd is the constant that tells how readily two partners part at equilibrium. A lower Kd goes with tighter binding. Usually koff stands for the rate constant with which the complex falls apart. In general, kon refers to the rate constant with which the complex forms. A low value points to slower complex formation.

Where “and” joins values, the source holds several entries; their conditions need not be identical. Equal entries are not always repeated. Where two headings read alike, the source gives them in different places. Ends that are not written are not given here. * marks the point of attachment. Palmitoyl = CCCCCCCCCCCCCCCC(=O)*

Sequence of rat serum albumin (P02770 25-608 limits assumed): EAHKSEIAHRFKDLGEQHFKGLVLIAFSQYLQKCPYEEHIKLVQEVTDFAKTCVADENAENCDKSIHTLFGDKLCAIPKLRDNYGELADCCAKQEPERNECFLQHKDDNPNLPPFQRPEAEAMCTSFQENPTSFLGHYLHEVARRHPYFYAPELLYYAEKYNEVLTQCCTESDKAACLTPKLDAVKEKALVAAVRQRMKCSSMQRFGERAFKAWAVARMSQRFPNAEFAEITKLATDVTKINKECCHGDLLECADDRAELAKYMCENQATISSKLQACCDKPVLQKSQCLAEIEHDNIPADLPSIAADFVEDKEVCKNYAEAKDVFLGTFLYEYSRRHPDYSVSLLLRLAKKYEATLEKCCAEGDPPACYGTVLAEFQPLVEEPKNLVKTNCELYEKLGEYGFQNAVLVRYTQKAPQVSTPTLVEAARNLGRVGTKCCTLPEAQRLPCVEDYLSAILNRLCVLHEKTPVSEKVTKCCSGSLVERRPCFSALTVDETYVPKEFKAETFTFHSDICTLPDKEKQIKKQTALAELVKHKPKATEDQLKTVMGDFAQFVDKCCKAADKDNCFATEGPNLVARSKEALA
T1 sequence (P01031 19-673 limits assumed, chain 1 of 2): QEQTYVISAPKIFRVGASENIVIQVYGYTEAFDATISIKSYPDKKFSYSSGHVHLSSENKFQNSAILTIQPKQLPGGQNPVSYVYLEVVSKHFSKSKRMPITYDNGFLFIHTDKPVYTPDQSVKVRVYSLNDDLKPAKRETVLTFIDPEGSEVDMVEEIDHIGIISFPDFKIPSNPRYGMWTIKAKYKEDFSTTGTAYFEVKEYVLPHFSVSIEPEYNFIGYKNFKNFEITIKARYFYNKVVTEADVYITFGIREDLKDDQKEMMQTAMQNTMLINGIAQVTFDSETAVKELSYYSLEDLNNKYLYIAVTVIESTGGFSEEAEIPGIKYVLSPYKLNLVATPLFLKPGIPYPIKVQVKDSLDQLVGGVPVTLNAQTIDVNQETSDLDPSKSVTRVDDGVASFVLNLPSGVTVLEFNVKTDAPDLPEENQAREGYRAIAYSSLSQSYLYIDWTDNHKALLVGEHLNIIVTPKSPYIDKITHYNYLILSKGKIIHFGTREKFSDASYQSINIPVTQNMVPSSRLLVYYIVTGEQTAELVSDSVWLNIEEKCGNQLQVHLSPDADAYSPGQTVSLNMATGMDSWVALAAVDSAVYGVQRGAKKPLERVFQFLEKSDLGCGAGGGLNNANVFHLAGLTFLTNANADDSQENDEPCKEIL
T1 sequence (P01031 678-1676 limits assumed, chain 2 of 2): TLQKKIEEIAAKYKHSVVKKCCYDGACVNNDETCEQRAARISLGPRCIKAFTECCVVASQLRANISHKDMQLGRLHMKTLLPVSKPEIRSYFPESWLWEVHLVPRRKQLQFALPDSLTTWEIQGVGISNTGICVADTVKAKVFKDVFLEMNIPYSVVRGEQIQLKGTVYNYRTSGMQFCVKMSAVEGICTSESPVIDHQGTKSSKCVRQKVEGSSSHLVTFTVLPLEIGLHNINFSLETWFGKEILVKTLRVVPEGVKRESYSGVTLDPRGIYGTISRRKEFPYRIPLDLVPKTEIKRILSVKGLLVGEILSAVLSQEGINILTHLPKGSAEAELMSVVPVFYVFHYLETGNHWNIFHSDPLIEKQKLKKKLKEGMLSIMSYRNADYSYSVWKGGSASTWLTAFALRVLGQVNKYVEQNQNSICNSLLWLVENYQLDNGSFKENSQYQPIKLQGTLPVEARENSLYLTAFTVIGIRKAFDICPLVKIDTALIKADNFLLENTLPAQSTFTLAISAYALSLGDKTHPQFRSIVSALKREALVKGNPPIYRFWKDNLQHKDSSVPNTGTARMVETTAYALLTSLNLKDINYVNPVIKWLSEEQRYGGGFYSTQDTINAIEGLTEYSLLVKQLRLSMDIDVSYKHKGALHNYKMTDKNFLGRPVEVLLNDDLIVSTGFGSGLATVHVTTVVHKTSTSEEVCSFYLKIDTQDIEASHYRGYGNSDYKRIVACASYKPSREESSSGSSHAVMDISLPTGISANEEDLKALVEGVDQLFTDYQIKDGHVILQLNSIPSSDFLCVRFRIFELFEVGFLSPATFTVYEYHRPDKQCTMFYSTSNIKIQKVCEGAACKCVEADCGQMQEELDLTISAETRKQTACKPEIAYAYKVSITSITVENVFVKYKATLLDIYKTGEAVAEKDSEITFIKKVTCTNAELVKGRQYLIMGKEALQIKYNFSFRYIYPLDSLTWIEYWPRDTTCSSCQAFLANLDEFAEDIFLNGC

B1: hC3nb1-K57 loop 2 with C-terminal single-chain Fc tag (bispecific antibody, not shown: a dimerising Fc or GST)
VHH: QVQLVETGGGLVQAGGSLRLSCAASGSIFSLNAMGWFRQAPSGGGSGCPPGYKSGVDCSPGSECKWGCYAVDGRRYGGYGADSGVSGGGSKEREFVATINRSGGRTYYADSVKGRFTISRDNGKNMVYLQMHSLKPEDTAIYYCAAGTGWSPQTDNEYNYWGQGTQVTVSS
notes: also called hC3Nb1 Loop 2
Take B1: binding in [1] was characterised by a dissociation constant (Kd) of 0.321 nM.

B2: PGT121 Fab-K57 knob domain fusion protein (Fab)
heavy: QMQLQESGPGLVKPSETLSLTCSVSGASISDSYWSWIRRSPGKGLEWIGYVHKSGDTNYSPSLKSRVNLSLDTSKNQVSLSLVAATAADSGKYYCARTLHGRRIYGSENLYFQGSGCPPGYKSGVDCSPGSECKWGCYAVDGRRYGGYGADSGVENLYFQGSEWFTYFYMDVWGNGTQVTVSSASTKGPSVFPLAPSSKSTSGGTAALGCLVKDYFPEPVTVSWNSGALTSGVHTFPAVLQSSGLYSLSSVVTVPSSSLGTQTYICNVNHKPSNTKVDKRVEPKSCDKTLEENLYFQGSGGSHHHHHHHHHH
light: QSVLTQPPDISVAPGETARISCGEKSLGSRAVQWYQHRAGQAPSLIIYNNQDRPSGIPERFSGSPDSPFGTTATLTITSVEAGDEADYYCHIWDSRVPTKWVFGGGTTLTVLGQPKAAPSVTLFPPSSEELQANKATLVCLISDFYPGAVTVAWKADSSPVKAGVETTTPSKQSNNKYAASSYLSLTPEQWKSHRSYSCQVTHEGSTVEKTVAPTECS
For B2, in experiment [2], the equilibrium dissociation constant (Kd) is 3.3 nM and 2.3 nM and 3.4 nM and 3 nM. In [3], this molecule had a dissociation constant Kd of 4.1 nM, a koff of 0.000132 s⁻¹ and a kon of 32300 M⁻¹ s⁻¹. Further, the dissociation constant (Kd) in experiment [4] is 4.9 nM and 3 nM and 3.4 nM and 3.7 nM.

B3: PGT121 Fab-K92 knob domain fusion protein (Fab)
heavy: QMQLQESGPGLVKPSETLSLTCSVSGASISDSYWSWIRRSPGKGLEWIGYVHKSGDTNYSPSLKSRVNLSLDTSKNQVSLSLVAATAADSGKYYCARTLHGRRIYGSENLYFQGVTCPEGWSECGVAIYGYECGRWGCGHFLNSGPNISPYVTTGSENLYFQGSEWFTYFYMDVWGNGTQVTVSSASTKGPSVFPLAPSSKSTSGGTAALGCLVKDYFPEPVTVSWNSGALTSGVHTFPAVLQSSGLYSLSSVVTVPSSSLGTQTYICNVNHKPSNTKVDKRVEPKSCDKTLEENLYFQGSGGSHHHHHHHHHH
light: QSVLTQPPDISVAPGETARISCGEKSLGSRAVQWYQHRAGQAPSLIIYNNQDRPSGIPERFSGSPDSPFGTTATLTITSVEAGDEADYYCHIWDSRVPTKWVFGGGTTLTVLGQPKAAPSVTLFPPSSEELQANKATLVCLISDFYPGAVTVAWKADSSPVKAGVETTTPSKQSNNKYAASSYLSLTPEQWKSHRSYSCQVTHEGSTVEKTVAPTECS
B3: in experiment [2], the Kd was 19.3 nM and 7.7 nM and 11.3 nM and 11.9 nM. Moreover, in experiment [3], the Kd is less than 0.1 nM, the koff was less than 2.93e-05 s⁻¹ and the on-rate constant (kon) came to 28000 M⁻¹ s⁻¹. Besides, in experiment [4], the dissociation constant Kd was 14 nM and 10.3 nM and 15.5 nM and 13.1 nM.

B4: PGT121 Fab-K149 knob domain fusion protein (Fab)
heavy: QMQLQESGPGLVKPSETLSLTCSVSGASISDSYWSWIRRSPGKGLEWIGYVHKSGDTNYSPSLKSRVNLSLDTSKNQVSLSLVAATAADSGKYYCARTLHGRRIYGSENLYFQGSCPDGFSYRSWDDFCCPMVGRCLAPRNGSENLYFQGSEWFTYFYMDVWGNGTQVTVSSASTKGPSVFPLAPSSKSTSGGTAALGCLVKDYFPEPVTVSWNSGALTSGVHTFPAVLQSSGLYSLSSVVTVPSSSLGTQTYICNVNHKPSNTKVDKRVEPKSCDKTLEENLYFQGSGGSHHHHHHHHHH
light: QSVLTQPPDISVAPGETARISCGEKSLGSRAVQWYQHRAGQAPSLIIYNNQDRPSGIPERFSGSPDSPFGTTATLTITSVEAGDEADYYCHIWDSRVPTKWVFGGGTTLTVLGQPKAAPSVTLFPPSSEELQANKATLVCLISDFYPGAVTVAWKADSSPVKAGVETTTPSKQSNNKYAASSYLSLTPEQWKSHRSYSCQVTHEGSTVEKTVAPTECS
In experiment [3], B4 gave a Kd of 143 nM, an off-rate constant (koff) of 0.00162 s⁻¹ and an on-rate constant (kon) of 11300 M⁻¹ s⁻¹. Besides, in experiment [4], the dissociation constant Kd was 34.9 nM and 57.6 nM and 30.1 nM and 39.3 nM.

B5: K57 ultralong CDR-H3-hC3nb1 (bispecific antibody, not shown: a dimerising Fc or GST)
VHH: TTVHQRTIKSGCPPGYKSGVDCSPGSECKWGCYAVDGRRYGGYGADSGVGSTYTHEFYVDAWGQGSSSSGSSSSGQVQLVETGGGLVQAGGSLRLSCAASGSIFSLNAMGWFRQAPGKEREFVATINRSGGRTYYADSVKGRFTISRDNGKNMVYLQMHSLKPEDTAIYYCAAGTGWSPQTDNEYNYWGQGTQVTVSS
notes: tied to the label 'hC3Nb1 N-Term' on that ground; also called hC3Nb1 N-Term
In experiment [1], B5 gave a Kd of 0.192 nM.

As to Palmitoyl-GCPPGYKSGVDCSPGSECKWGCYAVDGRRYGGYGADSGVGS (also: disulphides formed by free energy method, pairing not given here) [K57chemFE-Palmitoyl], in experiment [5], the affinity, expressed as Kd, was 9.52 nM; the off-rate (koff) came out at 0.000477 s⁻¹; the on-rate (kon) is 51100 M⁻¹ s⁻¹.

B6: hC3nb1-K57 loop 3 with C-terminal single-chain Fc tag (bispecific antibody, not shown: a dimerising Fc or GST)
VHH: QVQLVETGGGLVQAGGSLRLSCAASGSIFSLNAMGWFRQAPGKEREFVATINRSGGRTYYADSVKGSGGGSGCPPGYKSGVDCSPGSECKWGCYAVDGRRYGGYGADSGVSGGGSRFTISRDNGKNMVYLQMHSLKPEDTAIYYCAAGTGWSPQTDNEYNYWGQGTQVTVSS
notes: also called hC3Nb1 Loop 3
Regarding B6, the Kd in experiment [1] is 0.596 nM.

B7: K92 knob domain peptide, chemically synthesised, free energy method (Example 4) (peptide)
peptide: TCPEGWSECGVAIYGYECGRWGCGHFLNSGPNISPYVTTGS
modifications: disulfide (positions not given here); also: disulphides formed in glutathione redox buffer, pairing not given here
notes: Disulphides formed in glutathione redox buffer
Regarding B7, in experiment [6], the “Alternative pathway C5b neoepitope ELISA, average Emax” value worked out at 56.8% and the “Alternative pathway C5b neoepitope ELISA, geomean IC50” value was 46.2 nM. For the same molecule, in experiment [7], binding was characterised by a dissociation constant (Kd) of 0.643 nM, the off-rate constant (koff) stood at 0.000103 s⁻¹ and the kon was determined as 160000 M⁻¹ s⁻¹. In experiment [8], the “Classical pathway C5b deposition ELISA, average Emax” value was -33.9% and the “Classical pathway C5b deposition ELISA, geomean IC50” value was 6.6 nM.

B8: ultralong CDR-H3 of SEQ ID NO: 499 displayed on M13 phage (other)
chain: TTVHQQTQKHCPDDDTDRDGCSRPDSRGGSGCGSYGRYGDQGGACCPLTYEFDV
notes: not shown: poly-histidine, c-myc tag, M13 pIII
On to B8, for which the binding result with rat serum albumin and in the experiment with mouse serum albumin was “binds” each time.

B9: ultralong CDR-H3 of SEQ ID NO: 497 displayed on M13 phage (other)
chain: TTVHQKTTRQTSCPDGYIAGDSSCYRWRCRGNNCCKYGENRLLNYYDYTCVPYRDTYEWYVD
notes: as for B8
Turning to B9, the binding result with mouse serum albumin is on record as “binds”.

B10: ultralong CDR-H3 of SEQ ID NO: 506 displayed on M13 phage (other)
chain: TTVHQQTQERCPDDYTDRGGCSIPYNCGGSRCCAYGRNGGYGGVSCSRTYEFYVN
notes: as for B8
Turning to B10, the binding result in the experiment with rat serum albumin and with mouse serum albumin was “binds” each time.

B11: ultralong CDR-H3 of SEQ ID NO: 504 displayed on M13 phage (other)
chain: TTVHQQTQERCPDDYTDRGGCSIPYSCGDSRCCAYGRNGGYGGVSCSRTYEFYVN
notes: as for B8
In the case of B11, the binding result in the experiment with rat serum albumin and with mouse serum albumin was “binds” in each case.

B12: ultralong CDR-H3 of SEQ ID NO: 505 displayed on M13 phage (other)
chain: TTVHQQTQERCPDDYTDRGGCSIPYNCGGSRCCAYGRYGDYGGISCSRTYEFYVN
notes: as for B8
B12: the binding result in the experiment with rat serum albumin and in the experiment with mouse serum albumin was “binds” throughout.

B13: ultralong CDR-H3 of SEQ ID NO: 508 displayed on M13 phage (other)
chain: TTVHQQTQERCPDNYTDRGGCSIPYTCGGSRCCAYGRNGGYGGVSCSRTYEFYVN
notes: as for B8
B13: the binding result with rat serum albumin and in the experiment with mouse serum albumin was “binds” each time.

B14: ultralong CDR-H3 of SEQ ID NO: 500 displayed on M13 phage (other)
chain: TTVHQQTQERCPDDYTDRGGCSIPYNCGGSRCCAYGRNGGYGGISCSRTYEFYVN
notes: as for B8
For B14, the binding result with rat serum albumin and with mouse serum albumin was “binds” in each case.

B15: ultralong CDR-H3 of SEQ ID NO: 501 displayed on M13 phage (other)
chain: TTVHQQTQERCPDDYTDRGGCSIPYNCGGSRCCAYGRNGGYGGNTCSRTYELYVE
notes: as for B8
In the case of B15, the binding result in the experiment with rat serum albumin and with mouse serum albumin was “binds” throughout.

B16: ultralong CDR-H3 of SEQ ID NO: 507 displayed on M13 phage (other)
chain: TTVHQQTQERCPDNYTDRGGCSIPYSCGDSRCCAYGRNGGYGGVSCSRTYEFYVN
notes: as for B8
B16: the binding result with rat serum albumin and in the experiment with mouse serum albumin was “binds” in each case.

B17: ultralong CDR-H3 of SEQ ID NO: 503 displayed on M13 phage (other)
chain: TTVHQQTQERCPDDYTDRGGCSIPYNCGGSRCCAYGRNGGYGGISCSRTYEWYVD
notes: as for B8
As for B17, the binding result with rat serum albumin and in the experiment with mouse serum albumin was “binds” in each case.

B18: ultralong CDR-H3 of SEQ ID NO: 502 displayed on M13 phage (other)
chain: TTVHQQTQERCPDDYTDRGGCSIPYTCGGSRCCAYGRNGGYGGVSCSRTYEFYVN
notes: as for B8
With B18, the binding result in the experiment with rat serum albumin and with mouse serum albumin was “binds” throughout.

In [5], cyclo(VCPDGFNWGYGCAAGSSRFCTRHDWCCYDERADSHTYGFCTGNRV) (also: disulphides formed by free energy method, pairing not given here, Head-to-tail cyclised K8chemFE) [K8 chemFE cyclic] yielded a Kd of 28.5 nM, a koff of 0.00259 s⁻¹ and a kon of 94000 M⁻¹ s⁻¹.
